For one substance, blocking of WT1 Clone 45 CAR-mediated cytotoxicity against …-pulsed DIMT BLCL (51Cr release), antibody results are on record in US20140296492A1.

The assay has as its target HLA-A2-… complex on cells (human). The experiment in a line: cell-based or functional assay.

With anti-HLA-A2 antibody BB7.2, the blocking of WT1 Clone 45 CAR-mediated cytotoxicity against …-pulsed DIMT BLCL (51Cr release), antibody at 5 µg/ml turned out to be 45%.
